Assay results as given in PMC9335211.

Tests used:
[1] = biological target: full-length ectodomains (EC1 to EC5) of mouse E-cadherin, wild type (mouse); assay: high-speed atomic force microscopy
[2] = biological target: mouse E-cadherin full-length ectodomains, W2A mutant (mouse); assay: high-speed atomic force microscopy

Substance | stoichiometry N [1] | share of the observed dimers that are S-shaped [2] [%] | share of the observed dimers that are cross-shaped (X-like dimer) [2] [%]
full-length ectodomains (EC1 to EC5) of mouse E-cadherin, wild type (domain or fragment) | 2 | – | –
mouse E-cadherin full-length ectodomains, W2A mutant (domain or fragment) | – | 45 | 20
